From article PMC6661058 come the findings set out here.

The target of this series is T1, CepR (His-tagged response regulator) (Streptomyces clavuligerus F613-1) (UniProt E2PWN2).
T1 sequence: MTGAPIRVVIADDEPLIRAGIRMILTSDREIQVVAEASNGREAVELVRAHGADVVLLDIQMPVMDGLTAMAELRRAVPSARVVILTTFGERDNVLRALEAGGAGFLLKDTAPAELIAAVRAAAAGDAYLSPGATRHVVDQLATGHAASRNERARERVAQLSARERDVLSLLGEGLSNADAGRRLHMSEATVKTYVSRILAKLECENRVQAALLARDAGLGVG
Briefly: EMSA. Conditions: EMSA with 0.5-3.0 ug His-CepR and 1.0 ug poly(dI-dC); buffer, salt, pH and temperature not given (as in Fu et al. 2019; Zhang et al. 2015). (Mobility shift assays separate free from complexed probe on a gel.)

Turning to “ATGGTCGTCCGATCGCCGCACGATCACTGATCAAGCCCTGCCCCACCCCGGCGCAAAAATTATCCGCCGGGTCATCACGCGTCATCACCACGTAATTCGGGACGGGAATACCCTGCCGCATTCCCGCCGGGGCGGCCCGGTGGGGCGGCTCCCCTCCCGCAGGCGCGGCGGTGCCCGTCGCACACTCAAGGAAGAGGGCAATGAACGA (double strand) [cefD-cmcI intergenic P1]”, the binding result was “no binding”.
